Values of other authors, collected in article PMC10167482.

Key:
IFNAR1 (Homo sapiens) = IFNAR1 (Homo sapiens) (UniProt P17181)
IFNAR2 (Homo sapiens) = IFNAR2 (Homo sapiens) (UniProt P48551)
Sequence of UniProt P48551 (P48551 27-243): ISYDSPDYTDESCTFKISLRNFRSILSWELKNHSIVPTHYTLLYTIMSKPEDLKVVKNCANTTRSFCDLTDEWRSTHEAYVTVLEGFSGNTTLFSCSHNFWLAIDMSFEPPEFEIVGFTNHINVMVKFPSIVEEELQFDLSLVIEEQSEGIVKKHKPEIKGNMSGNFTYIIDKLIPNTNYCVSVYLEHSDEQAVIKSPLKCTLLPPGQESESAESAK

Sequence of UniProt P17181 (P17181 28-436): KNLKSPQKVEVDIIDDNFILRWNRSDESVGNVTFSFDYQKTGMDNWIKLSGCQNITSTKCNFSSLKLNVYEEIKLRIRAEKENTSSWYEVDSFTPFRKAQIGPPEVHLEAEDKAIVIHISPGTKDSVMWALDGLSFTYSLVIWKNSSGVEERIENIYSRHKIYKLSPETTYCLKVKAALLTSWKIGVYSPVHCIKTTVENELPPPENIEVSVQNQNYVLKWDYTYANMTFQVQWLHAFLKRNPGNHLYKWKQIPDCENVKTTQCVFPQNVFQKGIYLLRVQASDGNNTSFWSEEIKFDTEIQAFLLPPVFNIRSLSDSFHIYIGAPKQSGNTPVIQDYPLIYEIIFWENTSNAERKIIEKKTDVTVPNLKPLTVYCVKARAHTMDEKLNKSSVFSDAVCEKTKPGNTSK

With IFN-β (from UniProt P01574) as the substance, how does the Kd (IFNAR1 (Homo sapiens)) read?
Its Kd is 50 nM.

And the Kd (IFNAR2 (Homo sapiens))?
Its Kd is 0.2 nM.
